In patent US20210214435A1 one finds IC50, Maximum inhibition and EC50 (read off the curve) data, which are given here for five molecules.

Sequences and labels used below:
B1: Fab #4 comprising a modified heavy chain constant region (Fab, V domains shown)
VH: QVQLVQSGAEVKKPGASVKVSCKASGGAFTSSYMHWVRQAPGQGLEWMGIIEPTGASTLYAQRFQGRVTMTRDTSTSTVYMELSSLRSEDTAVYYCARTGIALPLGFDLWGQGTLVTVSS
VL: QSVLTQPPSVSAAPGQKVTISCSGSSSNIGNNYVSWYQQLPGTAPKLLIYDNNKRPSGIPDRFSGSKSGTSATLGITGLQTEDEADYYCAAWSTRFRWVFGGGTKLTVLG
B2: Fab #2 comprising a modified heavy chain constant region (Fab, V domains shown)
VH: QVQLVESGGGLVKPGGSLRLSCAASGFSFSDHYMSWIRQAPGKGLEWVSSVGSEGKFIDYAASVKGRFTISRDNAKNSLYLQMNSLRAEDTAVYYCARHYREFRWHYYYFDYWGQGTLVTVSS
VL: QSVLTQPPSVSGAPGQRVTISCTGSSSNIGAGYDVHWYQQLPGTAPKLLIYGNSNRPSGVPDRFSGSKSGTSASLAITGLQAEDEADYYCQSHDLGAHVWVFGGGTKLTVLG
B3: Fab #3 comprising a modified heavy chain constant region (Fab, V domains shown)
VH: QVQLVESGGGLVKPGGSLRLSCAASGFSFGDYYVSWIRQAPGKGLEWVSAIGGSGSAVQYAESVKGRFTISRDNAKNSLYLQMNSLRAEDTAVYYCARHYREFRWHYYYFDYWGQGTLVTVSS
VL: B2 VL
B4: Reference Control Antibody RefFab #1 (humanized GPVI antibody of WO2011073954A2, SANOFI) (Fab, V domains shown)
VH: EVQLLESGPGLVAPSGSLSITCTVSGFSLTGYGVNWVRQPPGKGLEWLGMIWGDGSTDYQSTLKSRLSISKDNSKSQVFLKMNSLRTDDTARYYCARDLPMDYWGLGTSVTVSS
VL: DIQMTQSPSSLSASVGGRVTITCKASQDINKYIAWYQHKPGKGPSLLIHYTSTLQPGVPSRFSGSGSGRDYSFSISNLQPEDIATYYCLQYANLLTFGGGTKLEIKR
B5: Fab #1 comprising a modified heavy chain constant region (Fab, V domains shown)
VH: QVQLVQSGAEVKKPGASVKVSCKASGYTFTSHYMHWVRQAPGQGLEWMGLIEPSEGETEYAQRFQGRVTMTRDTSTSTVYMELSSLRSEDTAVYYCARDSSRSYPLGFDIWGQGTLVTVSS
VL: QSVLTQPPSVSAAPGQKVTISCSGSSSNIGNNYVSWYQQLPGTAPKLLIYDNNKRPSGIPDRFSGSKSGTSATLGITGLQTEDEADYYCAAWDFRSSRWVFGGGTKLTVLG

For one test, the target named is human GPVI-Fc (isoform and haplotype not stated) used in the competition ELISA (human) (UniProt Q9HCN6). Nature of the test: Competition ELISA (MSD): human GPVI-Fc preincubated with Fab, then on coated CRP-XL (competitor).
A word on the IC50: it is the midpoint of a concentration-inhibition curve. A low value points to greater potency. On to B1, for which the IC50 stood at 13.2 nM and the Maximum inhibition at 200 nM Fab [%] stood at 47%.

For the molecule B2, the IC50 was found to be 8.3 nM and the Maximum inhibition at 200 nM Fab [%] is 100%.

Take B3: the IC50 amounted to 8.7 nM and the Maximum inhibition at 200 nM Fab [%] was determined as 100%.

The molecule B4 came in with an IC50 of 10.6 nM and a Maximum inhibition at 200 nM Fab [%] of 100%.

Consider B5, for which the half-maximal inhibitory concentration (IC50) amounted to 10.9 nM and the Maximum inhibition at 200 nM Fab [%] turned out to be 63%.

A further test has the same target. Nature of the test: Competition ELISA (MSD): human GPVI-Fc preincubated with Fab, then on coated VitroCol (competitor). For orientation: ELISA stands for enzyme-linked immunosorbent assay.
The molecule B1 gave an IC50 of 10.6 nM and a Maximum inhibition at 200 nM Fab [%] of 82%.

B2 gave an IC50 of 5.4 nM and a Maximum inhibition at 200 nM Fab [%] of 100%.

Regarding B3, the IC50 was determined as 5.6 nM and the Maximum inhibition at 200 nM Fab [%] came out at 99%.

Molecule B4 had an IC50 of 5.8 nM and a Maximum inhibition at 200 nM Fab [%] of 100%.

B5 returned an IC50 of 8.2 nM and a Maximum inhibition at 200 nM Fab [%] of 79%.

Another test shares this target. Description: Competition ELISA (MSD): human GPVI-Fc preincubated with Fab, then on coated rat-tail collagen (competitor).
In turn, B1 showed an IC50 of 8.2 nM and a Maximum inhibition at 200 nM Fab [%] of 86%.

Take B2: the IC50 turned out to be 6.3 nM and the Maximum inhibition at 200 nM Fab [%] is 100%.

Regarding B3, the IC50 stood at 6.3 nM and the Maximum inhibition at 200 nM Fab [%] was found to be 99%.

B4 registered an IC50 of 7 nM and a Maximum inhibition at 200 nM Fab [%] of 99%.

Molecule B5 returned an IC50 of 11 nM and a Maximum inhibition at 200 nM Fab [%] of 89%.

The target in a further test is human GPVI on the cell surface of human platelets (human) (UniProt Q9HCN6). Description: FACS on washed human platelets from PRP (one exemplary donor), PE-conjugated detection antibody, median fluorescence.
One may read the EC50 (read off the curve) as the concentration giving half of the maximal effect. As to B1, the concentration giving a half-maximal response (EC50 (read off the curve)) stood at 0.5 µg/mL.

For B2, the EC50 (read off the curve) came to 0.4 µg/mL.

In turn, B3 showed an EC50 (read off the curve) of 0.4 µg/mL.

Consider B4, for which the EC50 (read off the curve) came to 1 µg/mL.

Consider B5, for which the EC50 (read off the curve) was 0.2 µg/mL.

For the next test the target is unchanged. Description: FACS on washed human platelets from PRP, Fab directly conjugated with PE, average + SD of 3 donors, signal given as GPVI molecules per cell.
Consider B1, for which the EC50 (read off the curve) is 0.6 µg/mL.

Take B3: the EC50 (read off the curve) turned out to be 0.5 µg/mL.
